According to patent publication US20220380478A1 (published 2022):
Where two headings read alike, the source gives them in different places.

T1: CD32aH (FcγRIIaH) (UniProt P12318 34-217)
T1 chain: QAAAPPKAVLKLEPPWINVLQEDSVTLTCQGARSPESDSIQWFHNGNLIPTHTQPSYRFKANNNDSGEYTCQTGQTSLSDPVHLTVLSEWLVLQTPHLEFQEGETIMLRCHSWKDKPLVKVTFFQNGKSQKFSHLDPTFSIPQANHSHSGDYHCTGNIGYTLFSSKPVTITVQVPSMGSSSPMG

T2: CD32bF (FcγRIIbF) (UniProt P31994 43-217)
T2 chain: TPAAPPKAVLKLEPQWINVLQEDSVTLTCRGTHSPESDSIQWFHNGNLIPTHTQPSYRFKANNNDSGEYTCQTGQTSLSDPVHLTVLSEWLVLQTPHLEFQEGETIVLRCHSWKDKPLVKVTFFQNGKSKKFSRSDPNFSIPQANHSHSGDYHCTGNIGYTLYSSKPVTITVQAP

T3: FcγRIA (CD64) (UniProt P12314 16-292)
T3 chain: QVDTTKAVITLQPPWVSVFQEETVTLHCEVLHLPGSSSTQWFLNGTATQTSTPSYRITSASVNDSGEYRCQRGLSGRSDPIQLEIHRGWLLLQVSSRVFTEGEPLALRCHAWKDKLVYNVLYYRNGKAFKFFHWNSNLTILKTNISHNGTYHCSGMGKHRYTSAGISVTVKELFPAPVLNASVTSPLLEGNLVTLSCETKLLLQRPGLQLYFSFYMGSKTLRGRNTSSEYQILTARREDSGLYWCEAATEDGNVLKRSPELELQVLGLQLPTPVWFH

B1: TNX12 anti-CD154 monoclonal antibody (antibody)
heavy: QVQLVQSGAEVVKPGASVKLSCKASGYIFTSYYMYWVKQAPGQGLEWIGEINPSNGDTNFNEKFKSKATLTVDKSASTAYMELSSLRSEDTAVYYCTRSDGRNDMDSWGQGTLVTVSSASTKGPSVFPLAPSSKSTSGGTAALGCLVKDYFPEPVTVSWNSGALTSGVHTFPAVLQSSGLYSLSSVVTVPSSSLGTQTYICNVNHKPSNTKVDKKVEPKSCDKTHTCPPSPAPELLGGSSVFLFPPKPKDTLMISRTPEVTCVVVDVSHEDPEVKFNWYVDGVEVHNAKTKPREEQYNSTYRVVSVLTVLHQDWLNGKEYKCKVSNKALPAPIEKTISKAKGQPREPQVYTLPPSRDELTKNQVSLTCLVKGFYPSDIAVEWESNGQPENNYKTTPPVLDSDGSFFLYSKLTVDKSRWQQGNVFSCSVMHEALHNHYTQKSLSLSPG
light: DIVLTQSPATLSVSPGERATISCRASQRVSSSTYSYMHWYQQKPGQPPKLLIKYASNLESGVPARFSGSGSGTDFTLTISSVEPEDFATYYCQHSWEIPPTFGGGTKLEIKRTVAAPSVFIFPPSDEQLKSGTASVVCLLNNFYPREAKVQWKVDNALQSGNSQESVTEQDSKDSTYSLSSTLTLSKADYEKHKVYACEVTHQGLSSPVTKSFNRGEC
B2: TNX10 anti-CD154 monoclonal antibody (antibody)
heavy: not shown
light: DIVLTQSPATLSVSPGERATISCRASQRVSSSTYSYMHWYQQKPGQPPKLLIKYASNLESGVPARFSGSGSGTDFTLTISSVEPEDFATYYCQHSWEIPPTFGGGTKLEIKRTVAAPSVFIFPPSDEQLKSGTASVVCLLNNFYPREAKVQWKVDNALQSGNSQESVTEQDSKDSTYSLSSTLTLSKADYEKHKVYACEVTHQGLSSPVTKSFNRGEC
B3: TNX13 anti-CD154 monoclonal antibody (antibody)
heavy: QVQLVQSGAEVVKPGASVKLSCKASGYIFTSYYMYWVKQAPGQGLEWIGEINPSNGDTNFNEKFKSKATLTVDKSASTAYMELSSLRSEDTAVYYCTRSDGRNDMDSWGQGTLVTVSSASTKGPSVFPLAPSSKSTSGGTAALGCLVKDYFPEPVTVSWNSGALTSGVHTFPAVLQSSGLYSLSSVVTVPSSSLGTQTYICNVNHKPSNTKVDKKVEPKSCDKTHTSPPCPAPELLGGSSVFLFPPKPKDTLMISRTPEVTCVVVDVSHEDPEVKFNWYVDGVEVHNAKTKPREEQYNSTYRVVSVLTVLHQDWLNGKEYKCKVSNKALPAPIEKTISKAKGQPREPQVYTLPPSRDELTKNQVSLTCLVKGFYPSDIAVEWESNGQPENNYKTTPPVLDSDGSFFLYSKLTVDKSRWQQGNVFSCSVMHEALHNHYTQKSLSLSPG
light: DIVLTQSPATLSVSPGERATISCRASQRVSSSTYSYMHWYQQKPGQPPKLLIKYASNLESGVPARFSGSGSGTDFTLTISSVEPEDFATYYCQHSWEIPPTFGGGTKLEIKRTVAAPSVFIFPPSDEQLKSGTASVVCLLNNFYPREAKVQWKVDNALQSGNSQESVTEQDSKDSTYSLSSTLTLSKADYEKHKVYACEVTHQGLSSPVTKSFNRGEC
B4: TNX06 anti-CD154 monoclonal antibody (antibody)
heavy: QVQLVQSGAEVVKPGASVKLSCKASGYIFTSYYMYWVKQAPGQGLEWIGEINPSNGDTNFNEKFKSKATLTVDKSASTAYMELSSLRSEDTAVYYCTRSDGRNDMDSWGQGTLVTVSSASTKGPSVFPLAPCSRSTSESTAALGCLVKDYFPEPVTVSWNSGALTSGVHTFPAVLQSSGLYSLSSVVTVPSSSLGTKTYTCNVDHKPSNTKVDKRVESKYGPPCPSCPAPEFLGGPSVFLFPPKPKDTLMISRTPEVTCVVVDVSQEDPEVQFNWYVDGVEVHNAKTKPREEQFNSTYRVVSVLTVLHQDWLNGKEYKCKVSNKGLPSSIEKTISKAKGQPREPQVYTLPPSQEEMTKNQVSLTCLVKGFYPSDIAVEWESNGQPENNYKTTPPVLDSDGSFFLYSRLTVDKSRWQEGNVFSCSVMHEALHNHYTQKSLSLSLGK
light: DIVLTQSPATLSVSPGERATISCRASQRVSSSTYSYMHWYQQKPGQPPKLLIKYASNLESGVPARFSGSGSGTDFTLTISSVEPEDFATYYCQHSWEIPPTFGGGTKLEIKRTVAAPSVFIFPPSDEQLKSGTASVVCLLNNFYPREAKVQWKVDNALQSGNSQESVTEQDSKDSTYSLSSTLTLSKADYEKHKVYACEVTHQGLSSPVTKSFNRGEC
B5: TNX07 anti-CD154 monoclonal antibody (antibody)
heavy: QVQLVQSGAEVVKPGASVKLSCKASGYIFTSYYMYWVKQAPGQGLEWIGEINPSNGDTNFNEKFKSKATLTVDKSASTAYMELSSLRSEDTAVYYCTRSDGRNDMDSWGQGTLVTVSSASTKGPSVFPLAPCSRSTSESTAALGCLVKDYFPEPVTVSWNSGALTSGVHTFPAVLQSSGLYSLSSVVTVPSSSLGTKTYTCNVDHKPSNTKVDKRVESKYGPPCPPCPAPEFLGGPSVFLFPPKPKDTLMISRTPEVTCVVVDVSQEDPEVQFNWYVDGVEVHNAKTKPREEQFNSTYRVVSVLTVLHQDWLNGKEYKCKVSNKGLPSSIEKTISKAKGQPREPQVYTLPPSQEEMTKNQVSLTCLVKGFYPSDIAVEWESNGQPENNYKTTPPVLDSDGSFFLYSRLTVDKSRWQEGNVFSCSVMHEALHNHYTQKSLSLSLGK
light: DIVLTQSPATLSVSPGERATISCRASQRVSSSTYSYMHWYQQKPGQPPKLLIKYASNLESGVPARFSGSGSGTDFTLTISSVEPEDFATYYCQHSWEIPPTFGGGTKLEIKRTVAAPSVFIFPPSDEQLKSGTASVVCLLNNFYPREAKVQWKVDNALQSGNSQESVTEQDSKDSTYSLSSTLTLSKADYEKHKVYACEVTHQGLSSPVTKSFNRGEC
B6: TNX01 anti-CD154 monoclonal antibody (antibody)
heavy: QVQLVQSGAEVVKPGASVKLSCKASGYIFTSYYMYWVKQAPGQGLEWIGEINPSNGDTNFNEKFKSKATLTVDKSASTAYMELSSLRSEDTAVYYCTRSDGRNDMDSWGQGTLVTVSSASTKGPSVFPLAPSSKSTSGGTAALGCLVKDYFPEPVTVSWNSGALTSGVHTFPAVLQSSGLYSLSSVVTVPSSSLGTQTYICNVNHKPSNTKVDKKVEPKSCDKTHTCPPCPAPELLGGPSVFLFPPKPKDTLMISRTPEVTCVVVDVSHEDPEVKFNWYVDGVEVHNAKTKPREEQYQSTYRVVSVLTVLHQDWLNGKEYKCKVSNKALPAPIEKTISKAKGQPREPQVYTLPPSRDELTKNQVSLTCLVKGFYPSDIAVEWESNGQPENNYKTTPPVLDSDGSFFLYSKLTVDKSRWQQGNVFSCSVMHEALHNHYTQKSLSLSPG
light: DIVLTQSPATLSVSPGERATISCRASQRVSSSTYSYMHWYQQKPGQPPKLLIKYASNLESGVPARFSGSGSGTDFTLTISSVEPEDFATYYCQHSWEIPPTFGGGTKLEIKRTVAAPSVFIFPPSDEQLKSGTASVVCLLNNFYPREAKVQWKVDNALQSGNSQESVTEQDSKDSTYSLSSTLTLSKADYEKHKVYACEVTHQGLSSPVTKSFNRGEC
B7: D1.1 (ligand)
chain: MIETYNQTSPRSAATGLPISMKIFMYLLTVFLITQMIGSALFAVYLHRRLDKIEDERNLHEDFVFMKTIQRCNTGERSLSLLNCEEIKSQFEGFVKDIMLNKEETKKENSFEMQKGDQNPQIAAHVISEASSKTTSVLQWAEKGYYTMSNNLVTLENGKQLTVKRQGLYYIYAQVTFCSNREASSQAPFIASLCLKSPGRFERILLRAANTHSSAKPCGQQSIHLGGVFELQPGASVFVNVTDPSQVSHGTGFTSFGLLKL

Assays:
[1] = molecular target: T1, CD32aH (FcγRIIaH); assay: SPR
[2] = molecular target: T4, CD16aV (FcγRIIIaV) (UniProt P08637 17-208); assay: SPR
[3] = molecular target: T5, CD16aF (FcγRIIIaF) (UniProt P08637 17-208); assay: SPR
[4] = molecular target: T2, CD32bF (FcγRIIbF); assay: SPR
[5] = molecular target: T3, FcγRIA (CD64); assay: SPR
[6] = molecular target: T3, FcγRIA (CD64); assay: SPR; avid
[7] = molecular target: T1, CD32aH (FcγRIIaH); assay: SPR
[8] = molecular target: T4, CD16aV (FcγRIIIaV); assay: SPR; remark: listed apart in the source
[9] = molecular target: T5, CD16aF (FcγRIIIaF); assay: SPR; remark: listed apart in the source
[10] = molecular target: T2, CD32bF (FcγRIIbF); assay: SPR
[11] = molecular target: T3, FcγRIA (CD64); assay: SPR; avid
[12] = molecular target: Mouse anti hCD40L; assay: FACS cell binding; apparent Kd
[13] = molecular target: Mouse_anti-CD40L; assay: flow cytometry

T5 sequence (P08637 17-208): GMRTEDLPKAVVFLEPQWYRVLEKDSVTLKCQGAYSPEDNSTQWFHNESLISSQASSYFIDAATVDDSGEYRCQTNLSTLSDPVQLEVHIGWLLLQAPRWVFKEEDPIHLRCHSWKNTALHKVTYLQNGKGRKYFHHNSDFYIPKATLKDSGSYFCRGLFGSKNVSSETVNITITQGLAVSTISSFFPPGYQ
T4 sequence (P08637 17-208 F176V): as the sequence (P08637 17-208) above, with F160V counted along it

Row | Binder | Kd [1] [µM] | Kd [2] [µM] | Kd [3] [µM] | Kd [4] [µM] | Kd [5] [µM] | Kd [6] [µM] | Kd [7] [µM] | Kd [8] [µM] | Kd [9] [µM] | Kd [10] [µM] | Kd [11] [µM] | Kd [12] [µM] | Kd [13] [µM]
1 | B1 | > 12 | > 5 | > 5 | 8.41 | 0.000259 |  |  |  |  |  |  |  | 
2 | B2 | > 12 | 4.63 | > 5 | > 12 | 0.0687 |  |  |  |  |  |  |  | 
3 | B3 | 8.95 | > 5 | > 5 | 5.84 | 0.000222 |  |  |  |  |  |  |  | 
4 | B4 | 3.19 | 2.09 | 3.17 | 2.53 | 0.000285 |  |  |  |  |  |  |  | 
5 | B5 | 3.01 | 3.01 | 3.66 | 2.45 | 0.000253 |  |  |  |  |  |  |  | 
6 | B6 |  |  |  |  |  | 0.0765 | > 12 | > 5 | > 5 | > 12 | 0.056 |  | 
7 | B7 |  |  |  |  |  |  |  |  |  |  |  | 0.00039 | 0.000339
